US11066655B2, “RNA polymerase, methods of purification and methods of use” (President and Fellows of Harvard College, priority 2013, dated 2021)

Experiments:
[1] = test system: DNA templates S5P-tDNAR or T7P-tDNAR; experiment: Run-off synthesis of small RNA (tRNA^Arg), analytical scale, denaturing gel; type: biochemical; conditions: for N+1 product in tRNA^Arg synthesis: 37° C., 22, 67, 200 nM enzyme; for N+1 product in run-off products: all temperatures (16° C., RT, 37° C.) and KCl concentrations examined
Text: FIGS. 10A-10B depict a comparison of T7 and Syn5 RNA polymerase in run-off synthesis of small RNA. A) Effect of temperature and salt concentration on the RNA synthesis by T7 and Syn5 RNA polymerase. B) Similar as A) except that His-tagged T7 RNA polymerase was used.
FIGS. 11A-11B depict synthesis of tRNA^Arg by Syn5 and T7 RNA polymerase. A) Synthesis of tRNA^Arg at analytical scale by various amounts of Syn5 and T7 RNA polymerase. Using radioactively labeled CTP, the tRNA^Arg and N+1 product (as marked) produced by 22, 67, 200 nM Syn5 and T7 RNA polymerase at 37° C. are shown. […] The DNA encoding E. coli tRNA^ArgACG is directly downstream of a Syn5 or T7 promoter for the cognate RNA polymerase to synthesize run-off tRNA transcript. B) Synthesis of tRNA^Arg at preparative scale by Syn5 and T7 RNA polymerase. The sequencing gel is showing the analysis of the total RNA products by Syn5 and T7 RNAP at 37° C. in a 200 µl reaction. RNAs were purified by either ZYMO RNA clean kit or phenol/chloroform extraction followed by ethanol precipitation (P/C/E), as noted on top of the gel. The native tRNA^Arg (with modifications) overexpressed and purified from E. coli cells was used as a size marker. The two major bands in the total RNAs are tRNA^Arg and N+1 product as marked.
FIGS. 12A-12B depict synthesis of long run-off product and the incorporation of modified nucleotides by Syn5 and T7 RNA polymerase. A) On the linearized plasmid template as shown in the schematic, the production of RNA by either RNA polymerase (10 nM) was analyzed on agarose gel as lane 2. […] Lane 3 and 4 show the same RNA synthesis when CTP was replaced by 5mCTP and UTP by Ps-UTP, respectively. B) Incorporation of UTP or Ps-UTP into small RNA by 22, 67, and 200 nM Syn5 and T7 RNA polymerase as analyzed by denaturing TBE polyacrylamide gel. Full-length run-off product and the N+1 product are shown.
DNA templates for transcription assays were either plasmids or dsDNA fragments made of synthesized oligonucleotides. To test the processivity of Syn5 and T7 RNAP, a single Syn5 or T7 promoter plus 3 guanosine downstream of the promoter (Syn5 5′-ATTGGGCACCCGTAAGGG-3′ (SEQ ID NO:1) or T7 5′-[…]-3′) (SEQ ID NO:2) was inserted between the BamHI and XbaI sites of plasmid pUC19 to form pUC19-S5P or pUC19-T7P. The templates for run-off tRNA^Arg synthesis were formed by annealing of two complementary synthesized DNA oligos of which sequences are as following:
For the results shown in FIG. 10, reaction mixtures (10 μl) contained 40 mM Tris-HCl pH 8.0, 6 mM MgCl2, 2 mM spermidine, 10 mM DTT, 200 µm[…]P, GTP and UTP, 10 µM [[…]-^32P]CTP, 1.5 U/µl RNaseOUT™ recombinant ribonuclease inhibitor, 0.5 μM DNA templates S5P-tDNAR or T7P-tDNAR, 100 nM Syn5 or T7 RNAP, and various amount of KCl as noted in the figure. Reactions were carried out at various temperatures of 16° C., room temperature, or 37° C. for 30 min before adding of one unit of DNase I to each reaction mixture and an additional incubation of 15 min at 37° C. Reactions were then terminated by the addition of 4 µl of loading dye containing 95% formamide and 40 mM EDTA. Samples were then heated at 90° C. for 1 min and 4 µl sample each was loaded onto 15% TBE-Urea denaturing polyacrylamide gels. After electrophoresis, gels were dried and analyzed using a Fuji BAS 1000 Bioimaging Analyzer.
For the results shown in FIG. 11A, reaction mixtures (10 μl) containing 40 mM Tris-HCl pH 8.0, 6 mM MgCl2, 2 mM spermidine, 10 mM DTT, 200 µM[…]P, GTP and UTP, 10 µM [[…]-^32P]CTP, 1.5 U/µl RNaseOUT™ recombinant ribonuclease inhibitor, 0.5 μM DNA templates S5P-tDNAR or T7P-tDNAR, and various amount of Syn5 or T7 RNAP were incubated at 37° C. for 30 min before adding of one unit of DNase I to each reaction mixture and an additional incubation of 15 min at 37° C. Reactions were then terminated by the addition of 4 µl of loading dye containing 95% formamide and 40 mM EDTA. […]

pET24-S5RNAP DNA = experiment: Catalytic efficiency at various ribonucleotide concentrations (filter-binding assay); type: biochemical; conditions: for kcat/KmGTP / Km / kcat: GTP varied; for Km / KmGTP (results obtained with UTP): other NTPs 1 mM; for Km: 24° C., 5 min, read-out: apparent Km for GTP; for Km / kcat: 160 mM KCl for Syn5 RNAP, omitted for T7 RNAP; for kcat/KmGTP (results obtained with UTP) / kcatGTP (results obtained with UTP) / KmGTP (results obtained with UTP): UTP varied; for kcatGTP (results obtained with UTP) / KmGTP (results obtained with UTP): FIG. 7C/7D
Protocol: FIGS. 7A-7D depict a comparison of transcription efficiency of Syn5 and T7 RNAP at various ribonucleotide concentrations. A) Incorporation of NMP by Syn5 RNAP at various GTP concentrations. B) Incorporation of NMP by T7 RNAP at various GTP concentrations. C) Incorporation of NMP by Syn5 RNAP at various UTP concentrations. D) Incorporation of NMP by T7 RNAP at various UTP concentrations. Varied ribonucleotide concentrations were 7.8, 15.6, 31.3, 62.5, 125, 250, 500, 1000 µM while other NTPs were all at 1 mM, RNAP and template were both 20 nM, and the reaction time was 5 min at 24° C. 160 mM KCl was added for Syn5 RNAP reactions.
For the assays described in FIG. 7, reaction mixtures contained 40 mM Tris-HCl (pH 8.0), 6 mM MgCl2, 2 mM spermidine, 10 mM DTT, 20 nM Syn5 or T7 RNAP, 20 nM pET24-S5RNAP DNA, 1 mM ^3H-ATP (20 cpm/pmole), CTP, UTP (or GTP), and varying amounts of GTP (or UTP). 160 mM KCl was added for the Syn5 RNAP reactions. After various times the reactions were stopped by the addition of 20 mM EDTA. 4 µl of the mixtures were then loaded onto Whatman DE81 filter paper disks and the disks were washed to remove the unincorporated ^3H-ATP. The amount of insoluble ^3H-AMP, corresponding to nucleotides incorporated into newly synthesized RNA, was measured using a scintillation counter. The data were analyzed using Prism software.

| Molecule | run-off synthesis at high salt ([1]; 160 mM KCl) | N+1 product in tRNA^Arg synthesis [1] | N+1 product in run-off products [1] | products when UTP replaced by Ps-UTP ([1]; small RNA, radioactively labeled CTP) | kcat/KmGTP (pET24-S5RNAP DNA) [M⁻¹ s⁻¹] | Km (pET24-S5RNAP DNA) [µM] | kcat (pET24-S5RNAP DNA) [s⁻¹] | kcat/KmGTP (results obtained with UTP) (pET24-S5RNAP DNA) [M⁻¹ s⁻¹] | kcatGTP (results obtained with UTP) (pET24-S5RNAP DNA) [s⁻¹] | KmGTP (results obtained with UTP) (pET24-S5RNAP DNA) [µM] | run-off synthesis at high salt ([1]; 250 mM KCl) |
| --- | --- | --- | --- | --- | --- | --- | --- | --- | --- | --- | --- |
| T7 RNAP: RNA polymerase encoded by bacteriophage T7, from New England Biolabs [reference compound] | little activity | more N+1 product than the desired product | abundant amounts of the N+1 product | produced predominantly N+1 products | 90000 | 45.8 ± 9 | 4.1 | 290000 | 6.8 | 23.3 ± 5.5 |  |
| Syn5 RNAP: single subunit DNA-dependent RNA polymerase from marine cyanophage Syn5, amino acid sequence SEQ ID NO:23 (protein, Amino acid sequence of a cyanophage Syn5 RNAP) MSFDLIARQLQRETEAAELARKRLQDARREANERSYASSNIESRKAIATFLDPIAQRIGERLFTLRRGTGAVDAAEVYKHLKNADHHHLALITMKTALDVLGKDPEPQIQQLTTAIGRNIQLELRLTYYAEENPELYKQASRFFHAGTGTRQKATVIKLKFNREGIEWDQWSRVTCHKVGQWLMLAMADVTGWIERATDRTSGGRKTKTRICYSREFLQHRDTILAAAEQLAFCQWPMLCPPIEWSNDHNGGYLSEQIRRVNPLIRKTGPLGTRKQGDIPLAMLNNLQGQAYKVNPEVLDIANHCYESNVTVGKFIRHAPLPVPPSPGEDCTEDQLTAYKRARREAEDFNAQISQKNWRTTEVMYVARKYADEASFWMPASFDYRGRVYFLNTALNPQGTDFDKALLYFAEEGPVNEWWLSFHVATTYGLDKETMVNRVQWARDNHELIDRIASDPVRHTEWHDADEPWCFLAACLEYKACVIDGTKQTSGLPIGIDATCSGLQHLAAMTRCGRTAALVNVTPTDKPADAYKTVAQASLKHLPKEQHEWITRKVTKRPVMCTPYGVTMSSARGYIRDQLVKDGHKEDLRSPGVLNGIVKAIFNEAIPEVIPGPVQVMAWLKRSAGQIIDRGDSTITWTTPSGFEVVQDLKKSKTYEVKTRIMGGARIKLQVGDGFTDEPDRDHHKSALAPNVVHSNDASLLHLTFAFWDKPFTVIHDCVLGRSCDMDQMGSDIRLHFAEMYKADVMQDWADQVGVELPVDLIKNTLDIDSVNQSLYFFS |  | absence of N+1 product | did not contain detectable N+1 product band |  | 180000 | 13.9 ± 5.6 | 2.5 | 380000 | 2.8 | 7.4 ± 1.5 | produces significant amounts of product |
